Measurements as given in the supplement of paper PMC9112550, “Optimization of the antimicrobial peptide Bac7 by deep mutational scanning” (BMC Biology, 2022).

Tested on: Escherichia coli TOP10
Test: shrunken log2 fold change of peptide-encoding DNA abundance (4.5 h post-induction vs induction); higher = less antimicrobial activity (less host growth inhibition)
Conditions: time post-induction: 4.5 h; library: site-saturation at positions 5, 18, 19, 20
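Further: peptides expressed intracellularly from a pBAD plasmid library in pooled LB shake-flask culture, induced with 0.3% L-arabinose, DNA abundance read by NGS, three biological replicates, DESeq2 with apeglm shrinkage.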

Row | Sequence | shrunken log2 fold change
1 | RRIRWRPPRLPRPRPRPSQFPRP | -0.196
2 | RRIRNRPPRLPRPRPRPRPIPRP | 0.333
3 | RRIRHRPPRLPRPRPRPFQPPRP | -0.135
4 | RRIRCRPPRLPRPRPRPQYLPRP | -0.964
5 | RRIRMRPPRLPRPRPRPMSCPRP | 0.0466
6 | RRIRGRPPRLPRPRPRPGEQPRP | 1.23
7 | RRIRYRPPRLPRPRPRPWRFPRP | -0.00218
8 | RRIRGRPPRLPRPRPRPQVWPRP | 0.846
9 | RRIRIRPPRLPRPRPRPLRPPRP | 0.583
10 | RRIRFRPPRLPRPRPRPIHVPRP | -0.335
11 | RRIRHRPPRLPRPRPRPICTPRP | -0.485
12 | RRIRGRPPRLPRPRPRPGEGPRP | 1.15
13 | RRIRHRPPRLPRPRPRPSNDPRP | -0.849
14 | RRIRKRPPRLPRPRPRPAQRPRP | 0.946
15 | RRIRGRPPRLPRPRPRPQGKPRP | 0.0794
16 | RRIRSRPPRLPRPRPRPDYCPRP | -0.284
17 | RRIRRRPPRLPRPRPRPYLTPRP | 0.0355
18 | RRIRPRPPRLPRPRPRPPTIPRP | -0.148
19 | RRIRHRPPRLPRPRPRPDDYPRP | -0.00759
20 | RRIRRRPPRLPRPRPRPRRMPRP | 0.206
21 | RRIRYRPPRLPRPRPRPGGKPRP | 0.0336
22 | RRIRHRPPRLPRPRPRPRYWPRP | 0.319
23 | RRIRVRPPRLPRPRPRPKICPRP | -0.0576
24 | RRIRRRPPRLPRPRPRPAFRPRP | 0.311
25 | RRIRRRPPRLPRPRPRPEVDPRP | 0.0409

Row | Sequence | shrunken log2 fold change
26 | RRIRKRPPRLPRPRPRPDNEPRP | 0.665
27 | RRIRMRPPRLPRPRPRPTENPRP | 0.772
28 | RRIRKRPPRLPRPRPRPAHEPRP | 0.816
29 | RRIRKRPPRLPRPRPRPKFAPRP | 0.764
30 | RRIRYRPPRLPRPRPRPSNQPRP | -0.273
31 | RRIRDRPPRLPRPRPRPNTVPRP | -0.364
32 | RRIRPRPPRLPRPRPRPICYPRP | -0.407
33 | RRIRQRPPRLPRPRPRPWFAPRP | -0.16
34 | RRIRTRPPRLPRPRPRPMEEPRP | -0.25
35 | RRIRQRPPRLPRPRPRPKCLPRP | 0.0772
36 | RRIRWRPPRLPRPRPRPVDMPRP | -0.0613
37 | RRIRKRPPRLPRPRPRPAMHPRP | 0.402
38 | RRIRPRPPRLPRPRPRPDHNPRP | -0.675
39 | RRIRSRPPRLPRPRPRPSMSPRP | 0.0307
40 | RRIRYRPPRLPRPRPRPLMGPRP | -0.0741
41 | RRIRIRPPRLPRPRPRPMCRPRP | -0.236
42 | RRIRSRPPRLPRPRPRPHNDPRP | -0.309
43 | RRIRWRPPRLPRPRPRPAYIPRP | -0.0757
44 | RRIRQRPPRLPRPRPRPIELPRP | -0.293
45 | RRIRMRPPRLPRPRPRPERGPRP | 1.39
46 | RRIRPRPPRLPRPRPRPAQEPRP | 0.171
47 | RRIRSRPPRLPRPRPRPTSWPRP | 0.239
48 | RRIRMRPPRLPRPRPRPPHLPRP | 0.389
49 | RRIRIRPPRLPRPRPRPKEEPRP | 0.0133
50 | RRIRSRPPRLPRPRPRPEMMPRP | 0.681

Row | Sequence | shrunken log2 fold change
51 | RRIRWRPPRLPRPRPRPGTRPRP | 0.377
52 | RRIRMRPPRLPRPRPRPDANPRP | 3.18
53 | RRIRYRPPRLPRPRPRPKLDPRP | -0.351
54 | RRIRKRPPRLPRPRPRPSPVPRP | 0.191
55 | RRIRVRPPRLPRPRPRPAQIPRP | -0.246
56 | RRIRLRPPRLPRPRPRPKKWPRP | 0.11
57 | RRIRQRPPRLPRPRPRPWRKPRP | -0.0153
58 | RRIRPRPPRLPRPRPRPMKQPRP | 0.036
59 | RRIRWRPPRLPRPRPRPFKDPRP | -0.252
60 | RRIRVRPPRLPRPRPRPPACPRP | 0.692
61 | RRIRMRPPRLPRPRPRPWCHPRP | 0.0355
62 | RRIRHRPPRLPRPRPRPYLQPRP | -0.0639
63 | RRIRPRPPRLPRPRPRPVGWPRP | 0.826
64 | RRIRGRPPRLPRPRPRPRFDPRP | 0.382
65 | RRIRQRPPRLPRPRPRPPKNPRP | 0.29
66 | RRIRQRPPRLPRPRPRPPPAPRP | 0.804
67 | RRIRTRPPRLPRPRPRPMHPPRP | 0.0402
68 | RRIRERPPRLPRPRPRPPRQPRP | 0.26
69 | RRIRKRPPRLPRPRPRPTQPPRP | 0.606
70 | RRIRGRPPRLPRPRPRPAMNPRP | 0.542
71 | RRIRIRPPRLPRPRPRPPQEPRP | -0.0258
72 | RRIRGRPPRLPRPRPRPLCLPRP | 0.437
73 | RRIRWRPPRLPRPRPRPGYKPRP | -0.255
74 | RRIRKRPPRLPRPRPRPCHHPRP | -0.411
75 | RRIRWRPPRLPRPRPRPFQGPRP | -0.249

Row | Sequence | shrunken log2 fold change
76 | RRIRDRPPRLPRPRPRPHLMPRP | -0.283
77 | RRIRERPPRLPRPRPRPQIQPRP | 0.136
78 | RRIRNRPPRLPRPRPRPSCIPRP | -0.507
79 | RRIRHRPPRLPRPRPRPMWAPRP | -0.0936
80 | RRIRPRPPRLPRPRPRPVWSPRP | 0.0634
81 | RRIRPRPPRLPRPRPRPTSEPRP | 0.0181
82 | RRIRGRPPRLPRPRPRPMKVPRP | -0.0224
83 | RRIRCRPPRLPRPRPRPQANPRP | 0.0603
84 | RRIRNRPPRLPRPRPRPISHPRP | -0.963
85 | RRIRPRPPRLPRPRPRPCNYPRP | -0.152
86 | RRIRHRPPRLPRPRPRPLELPRP | -0.0293
87 | RRIRHRPPRLPRPRPRPAFDPRP | -0.00345
88 | RRIRNRPPRLPRPRPRPIYFPRP | -0.767
89 | RRIRGRPPRLPRPRPRPTSWPRP | 0.782
90 | RRIRWRPPRLPRPRPRPMIYPRP | -0.542
91 | RRIRLRPPRLPRPRPRPITYPRP | -0.266
92 | RRIRDRPPRLPRPRPRPPQIPRP | -0.179
93 | RRIRQRPPRLPRPRPRPQIVPRP | -0.026
94 | RRIRLRPPRLPRPRPRPKDNPRP | -0.303
95 | RRIRTRPPRLPRPRPRPHHQPRP | -0.272
96 | RRIRRRPPRLPRPRPRPGCVPRP | 0.329
97 | RRIRCRPPRLPRPRPRPISEPRP | -0.0601
98 | RRIRKRPPRLPRPRPRPRVSPRP | 0.198
99 | RRIRPRPPRLPRPRPRPWLCPRP | 0.106
100 | RRIRGRPPRLPRPRPRPQPVPRP | 0.285

Row | Sequence | shrunken log2 fold change
101 | RRIRMRPPRLPRPRPRPWLKPRP | -0.11
102 | RRIRCRPPRLPRPRPRPPQCPRP | 0.182
103 | RRIRIRPPRLPRPRPRPISYPRP | -0.197
104 | RRIRQRPPRLPRPRPRPLRSPRP | 0.208
105 | RRIRPRPPRLPRPRPRPDGHPRP | 0.0433
106 | RRIRTRPPRLPRPRPRPYITPRP | -1.19
107 | RRIRLRPPRLPRPRPRPAHWPRP | 0.608
108 | RRIRTRPPRLPRPRPRPFTPPRP | -0.0472
109 | RRIRTRPPRLPRPRPRPPYNPRP | -0.252
110 | RRIRGRPPRLPRPRPRPFAWPRP | 0.573
111 | RRIRRRPPRLPRPRPRPDTSPRP | 0.0612
112 | RRIRDRPPRLPRPRPRPINRPRP | -0.104
113 | RRIRKRPPRLPRPRPRPHNPPRP | -0.0541
114 | RRIRKRPPRLPRPRPRPFAYPRP | 0.0165
115 | RRIRSRPPRLPRPRPRPIIEPRP | -0.114
116 | RRIRWRPPRLPRPRPRPHAKPRP | 0.202
117 | RRIRNRPPRLPRPRPRPKGWPRP | 0.439
118 | RRIRFRPPRLPRPRPRPPWVPRP | 0.401
119 | RRIRQRPPRLPRPRPRPSAEPRP | 0.117
120 | RRIRHRPPRLPRPRPRPQRCPRP | -0.00202
121 | RRIRYRPPRLPRPRPRPHGSPRP | -0.00822
122 | RRIRTRPPRLPRPRPRPIETPRP | 0.108
123 | RRIRRRPPRLPRPRPRPPMCPRP | 0.622
124 | RRIRLRPPRLPRPRPRPVRFPRP | 1.26
125 | RRIRYRPPRLPRPRPRPKEYPRP | 0.171
